The assay deals with cerFP505 (ceriantharian fluorescent protein with an emission maximum at 505 nm) (deep sea ceriantharian (taxon Spirularia, species not determined)). Briefly: SEC; elution profile of purified recombinant cerFP505; conditions as described in refs 43, 44.

The results in this text go back to PMC2582951.

With “cerFP505 (ceriantharian fluorescent protein with an emission maximum at 505 nm) (natural protein)”, the stoichiometry N was determined as 4.
